T1: EsCas13d, nuclease-dead (Eubacterium siraeum, UniProt B0MS50, R295A;H300A;R849A;H854A)
T1 sequence: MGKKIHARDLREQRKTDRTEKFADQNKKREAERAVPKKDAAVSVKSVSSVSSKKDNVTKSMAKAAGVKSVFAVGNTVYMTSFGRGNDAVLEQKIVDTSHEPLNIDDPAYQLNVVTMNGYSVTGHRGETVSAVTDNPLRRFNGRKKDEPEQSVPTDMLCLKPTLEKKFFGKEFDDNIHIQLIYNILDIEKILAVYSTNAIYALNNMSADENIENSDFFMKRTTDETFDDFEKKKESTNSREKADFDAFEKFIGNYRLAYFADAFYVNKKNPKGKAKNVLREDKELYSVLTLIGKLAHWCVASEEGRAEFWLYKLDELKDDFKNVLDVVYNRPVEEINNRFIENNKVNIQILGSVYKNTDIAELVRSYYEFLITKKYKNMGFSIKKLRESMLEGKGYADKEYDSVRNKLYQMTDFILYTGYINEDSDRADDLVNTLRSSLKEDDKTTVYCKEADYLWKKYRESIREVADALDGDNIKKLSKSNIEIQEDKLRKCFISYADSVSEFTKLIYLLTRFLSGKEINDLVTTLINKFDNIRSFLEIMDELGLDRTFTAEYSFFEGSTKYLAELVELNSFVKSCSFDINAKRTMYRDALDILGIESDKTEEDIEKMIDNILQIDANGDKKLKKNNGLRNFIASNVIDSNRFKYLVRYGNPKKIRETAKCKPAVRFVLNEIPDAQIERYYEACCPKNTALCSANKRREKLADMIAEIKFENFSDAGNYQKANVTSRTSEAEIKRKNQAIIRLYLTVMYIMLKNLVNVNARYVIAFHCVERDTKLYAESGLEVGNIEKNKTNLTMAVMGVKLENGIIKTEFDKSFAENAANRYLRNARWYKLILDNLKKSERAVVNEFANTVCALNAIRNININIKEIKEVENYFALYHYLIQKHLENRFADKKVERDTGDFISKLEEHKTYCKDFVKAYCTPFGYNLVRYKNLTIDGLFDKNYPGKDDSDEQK

B1: target 1 MT 5'PFS GAG 3'PFS AGU (mixed)
RNA 1: CACCCGUGCAAAAAUGCAGGGGUCUAAAACUGAGCGGAUAACCUCUCUAUGG
RNA 2: GGGAAUGGAUCCACAUCUACGAAUUCGAGCCAUAGAGAGGUUAUCCGCUCAAGUAGAUCGGAAGAGCACACGU
B2: target 1 MT 5'PFS CUA 3'PFS CGU (mixed)
RNA 1: CACCCGUGCAAAAAUGCAGGGGUCUAAAACUGAGCGGAUAACCUCUCUAUGG
RNA 2: GGGAAUGGAUCCACAUCUACGAAUUCCUACCAUAGAGAGGUUAUCCGCUCACGUAGAUCGGAAGAGCACACGU
B3: target 1 MT 5'PFS UUG 3'PFS AUC (mixed)
RNA 1: CACCCGUGCAAAAAUGCAGGGGUCUAAAACUGAGCGGAUAACCUCUCUAUGG
RNA 2: GGGAAUGGAUCCACAUCUACGAAUUCUUGCCAUAGAGAGGUUAUCCGCUCAAUCAGAUCGGAAGAGCACACGU
B4: target 1 MT 5'PFS CUG 3'PFS ACG (mixed)
RNA 1: CACCCGUGCAAAAAUGCAGGGGUCUAAAACUGAGCGGAUAACCUCUCUAUGG
RNA 2: GGGAAUGGAUCCACAUCUACGAAUUCCUGCCAUAGAGAGGUUAUCCGCUCAACGAGAUCGGAAGAGCACACGU
B5: target 1 MT 5'PFS CUA 3'PFS AAG (mixed)
RNA 1: CACCCGUGCAAAAAUGCAGGGGUCUAAAACUGAGCGGAUAACCUCUCUAUGG
RNA 2: GGGAAUGGAUCCACAUCUACGAAUUCCUACCAUAGAGAGGUUAUCCGCUCAAAGAGAUCGGAAGAGCACACGU
B6: target 1 MT 5'PFS UUA 3'PFS CAA (mixed)
RNA 1: CACCCGUGCAAAAAUGCAGGGGUCUAAAACUGAGCGGAUAACCUCUCUAUGG
RNA 2: GGGAAUGGAUCCACAUCUACGAAUUCUUACCAUAGAGAGGUUAUCCGCUCACAAAGAUCGGAAGAGCACACGU
B7: target 1 MT 5'PFS UGC 3'PFS UCC (mixed)
RNA 1: CACCCGUGCAAAAAUGCAGGGGUCUAAAACUGAGCGGAUAACCUCUCUAUGG
RNA 2: GGGAAUGGAUCCACAUCUACGAAUUCUGCCCAUAGAGAGGUUAUCCGCUCAUCCAGAUCGGAAGAGCACACGU
B8: target 1 insC 3' of 18,insC 3' of 3 (mixed)
RNA 1: CACCCGUGCAAAAAUGCAGGGGUCUAAAACUGAGCGGAUAACCUCUCUAUGG
RNA 2: GGGAAUGGAUCCACAUCUACGAAUUCGUACCAUACGAGAGGUUAUCCGCUCCACCGAGAUCGGAAGAGCACACGU
B9: target 1 MT 5'PFS AUG 3'PFS CCC (mixed)
RNA 1: CACCCGUGCAAAAAUGCAGGGGUCUAAAACUGAGCGGAUAACCUCUCUAUGG
RNA 2: GGGAAUGGAUCCACAUCUACGAAUUCAUGCCAUAGAGAGGUUAUCCGCUCACCCAGAUCGGAAGAGCACACGU
B10: target 1 MT 5'PFS GCA 3'PFS UAU (mixed)
RNA 1: CACCCGUGCAAAAAUGCAGGGGUCUAAAACUGAGCGGAUAACCUCUCUAUGG
RNA 2: GGGAAUGGAUCCACAUCUACGAAUUCGCACCAUAGAGAGGUUAUCCGCUCAUAUAGAUCGGAAGAGCACACGU
B11: target 1 MT 5'PFS UGC 3'PFS UCA (mixed)
RNA 1: CACCCGUGCAAAAAUGCAGGGGUCUAAAACUGAGCGGAUAACCUCUCUAUGG
RNA 2: GGGAAUGGAUCCACAUCUACGAAUUCUGCCCAUAGAGAGGUUAUCCGCUCAUCAAGAUCGGAAGAGCACACGU
B12: target 1 MT 5'PFS GCA 3'PFS UAA (mixed)
RNA 1: CACCCGUGCAAAAAUGCAGGGGUCUAAAACUGAGCGGAUAACCUCUCUAUGG
RNA 2: GGGAAUGGAUCCACAUCUACGAAUUCGCACCAUAGAGAGGUUAUCCGCUCAUAAAGAUCGGAAGAGCACACGU
B13: target 1 MT 5'PFS GUA 3'PFS UAC (mixed)
RNA 1: CACCCGUGCAAAAAUGCAGGGGUCUAAAACUGAGCGGAUAACCUCUCUAUGG
RNA 2: GGGAAUGGAUCCACAUCUACGAAUUCGUACCAUAGAGAGGUUAUCCGCUCAUACAGAUCGGAAGAGCACACGU
B14: target 1 MT 5'PFS UUG 3'PFS AUG (mixed)
RNA 1: CACCCGUGCAAAAAUGCAGGGGUCUAAAACUGAGCGGAUAACCUCUCUAUGG
RNA 2: GGGAAUGGAUCCACAUCUACGAAUUCUUGCCAUAGAGAGGUUAUCCGCUCAAUGAGAUCGGAAGAGCACACGU
B15: target 1 MT 5'PFS UUG 3'PFS AUA (mixed)
RNA 1: CACCCGUGCAAAAAUGCAGGGGUCUAAAACUGAGCGGAUAACCUCUCUAUGG
RNA 2: GGGAAUGGAUCCACAUCUACGAAUUCUUGCCAUAGAGAGGUUAUCCGCUCAAUAAGAUCGGAAGAGCACACGU
B16: target 1 MT 5'PFS UGC 3'PFS UCG (mixed)
RNA 1: CACCCGUGCAAAAAUGCAGGGGUCUAAAACUGAGCGGAUAACCUCUCUAUGG
RNA 2: GGGAAUGGAUCCACAUCUACGAAUUCUGCCCAUAGAGAGGUUAUCCGCUCAUCGAGAUCGGAAGAGCACACGU
B17: target 1 MT 5'PFS GCA 3'PFS UAC (mixed)
RNA 1: CACCCGUGCAAAAAUGCAGGGGUCUAAAACUGAGCGGAUAACCUCUCUAUGG
RNA 2: GGGAAUGGAUCCACAUCUACGAAUUCGCACCAUAGAGAGGUUAUCCGCUCAUACAGAUCGGAAGAGCACACGU
B18: target 1 MT 5'PFS GUU 3'PFS AGG (mixed)
RNA 1: CACCCGUGCAAAAAUGCAGGGGUCUAAAACUGAGCGGAUAACCUCUCUAUGG
RNA 2: GGGAAUGGAUCCACAUCUACGAAUUCGUUCCAUAGAGAGGUUAUCCGCUCAAGGAGAUCGGAAGAGCACACGU
B19: target 1 MT 5'PFS CUA 3'PFS UGA (mixed)
RNA 1: CACCCGUGCAAAAAUGCAGGGGUCUAAAACUGAGCGGAUAACCUCUCUAUGG
RNA 2: GGGAAUGGAUCCACAUCUACGAAUUCCUACCAUAGAGAGGUUAUCCGCUCAUGAAGAUCGGAAGAGCACACGU
B20: target 1 MT 5'PFS CUG 3'PFS ACA (mixed)
RNA 1: CACCCGUGCAAAAAUGCAGGGGUCUAAAACUGAGCGGAUAACCUCUCUAUGG
RNA 2: GGGAAUGGAUCCACAUCUACGAAUUCCUGCCAUAGAGAGGUUAUCCGCUCAACAAGAUCGGAAGAGCACACGU
B21: target 1 MT 5'PFS GUA 3'PFS UAU (mixed)
RNA 1: CACCCGUGCAAAAAUGCAGGGGUCUAAAACUGAGCGGAUAACCUCUCUAUGG
RNA 2: GGGAAUGGAUCCACAUCUACGAAUUCGUACCAUAGAGAGGUUAUCCGCUCAUAUAGAUCGGAAGAGCACACGU
B22: target 1 MT 5'PFS GAG 3'PFS UGU (mixed)
RNA 1: CACCCGUGCAAAAAUGCAGGGGUCUAAAACUGAGCGGAUAACCUCUCUAUGG
RNA 2: GGGAAUGGAUCCACAUCUACGAAUUCGAGCCAUAGAGAGGUUAUCCGCUCAUGUAGAUCGGAAGAGCACACGU
B23: target 1 G5C,A16G (mixed)
RNA 1: CACCCGUGCAAAAAUGCAGGGGUCUAAAACUGAGCGGAUAACCUCUCUAUGG
RNA 2: GGGAAUGGAUCCACAUCUACGAAUUCGUACCAUAGGGAGGUUAUCCCCUCACCGAGAUCGGAAGAGCACACGU
B24: target 1 MT 5'PFS GCA 3'PFS UAG (mixed)
RNA 1: CACCCGUGCAAAAAUGCAGGGGUCUAAAACUGAGCGGAUAACCUCUCUAUGG
RNA 2: GGGAAUGGAUCCACAUCUACGAAUUCGCACCAUAGAGAGGUUAUCCGCUCAUAGAGAUCGGAAGAGCACACGU
B25: target 1 MT 5'PFS GUA 3'PFS UAG (mixed)
RNA 1: CACCCGUGCAAAAAUGCAGGGGUCUAAAACUGAGCGGAUAACCUCUCUAUGG
RNA 2: GGGAAUGGAUCCACAUCUACGAAUUCGUACCAUAGAGAGGUUAUCCGCUCAUAGAGAUCGGAAGAGCACACGU
B26: target 1 MT 5'PFS GUA 3'PFS UAA (mixed)
RNA 1: CACCCGUGCAAAAAUGCAGGGGUCUAAAACUGAGCGGAUAACCUCUCUAUGG
RNA 2: GGGAAUGGAUCCACAUCUACGAAUUCGUACCAUAGAGAGGUUAUCCGCUCAUAAAGAUCGGAAGAGCACACGU
B27: target 1 MT 5'PFS CUG 3'PFS ACC (mixed)
RNA 1: CACCCGUGCAAAAAUGCAGGGGUCUAAAACUGAGCGGAUAACCUCUCUAUGG
RNA 2: GGGAAUGGAUCCACAUCUACGAAUUCCUGCCAUAGAGAGGUUAUCCGCUCAACCAGAUCGGAAGAGCACACGU
B28: target 1 MT 5'PFS UUA 3'PFS CAG (mixed)
RNA 1: CACCCGUGCAAAAAUGCAGGGGUCUAAAACUGAGCGGAUAACCUCUCUAUGG
RNA 2: GGGAAUGGAUCCACAUCUACGAAUUCUUACCAUAGAGAGGUUAUCCGCUCACAGAGAUCGGAAGAGCACACGU

Target: T1, EsCas13d, nuclease-dead
Test: crRNA (strand 1, pre-loaded); Mg2+; 40 mM Tris-HCl pH 7.5, 150 mM NaCl, 6 mM MgCl2, 1 mM DTT, 0.1% Tween-20, 0.2 mg/ml BSA; 25 C; 10 min per concentration, then washed
Conditions: tags: His6-TwinStrep-SUMO cleaved; N-terminal SNAP kept (SNAP-Surface 488); label: 3' end held by stalled T7 RNA polymerase

Row | Binder | Kd [nM]
1 | B1 | 47.5 ± 16.5
2 | B2 | 17 ± 6
3 | B3 | 37.5 ± 13
4 | B4 | 6.85 ± 1.6
5 | B5 | 11.4 ± 4
6 | B6 | 49 ± 21
7 | B7 | 30 ± 10.5
8 | B8 | 32 ± 4
9 | B9 | ~40.5
10 | B10 | 10.8 ± 1.45
11 | B11 | 11.5 ± 5.3
12 | B12 | 19 ± 6.5
13 | B13 | 13.2 ± 1.25
14 | B14 | 83 ± 35
15 | B15 | 58.5 ± 20
16 | B16 | 12.1 ± 2.7
17 | B17 | 14 ± 2.55
18 | B18 | 66.5 ± 11.5
19 | B19 | 22 ± 7.5
20 | B20 | 8.25 ± 2.25
21 | B21 | 9.75 ± 0.7
22 | B22 | 64.5 ± 30.5
23 | B23 | 65 ± 11
24 | B24 | 19.4 ± 4.95
25 | B25 | 13.7 ± 0.9
26 | B26 | 13.8 ± 1.35
27 | B27 | 6.1 ± 1.45
28 | B28 | 49.5 ± 20
